Data: publication PMC8812563 (Proceedings of the National Academy of Sciences of the …, 2022)

Molecular target: T1, PHYTOCHROME-INTERACTING FACTOR 7 with Flash tag (35S::PIF7-Flash; 9xMyc-6xHis-3xFlag) (Arabidopsis thaliana, UniProt Q570R7 1-366)
T1 sequence (looked up): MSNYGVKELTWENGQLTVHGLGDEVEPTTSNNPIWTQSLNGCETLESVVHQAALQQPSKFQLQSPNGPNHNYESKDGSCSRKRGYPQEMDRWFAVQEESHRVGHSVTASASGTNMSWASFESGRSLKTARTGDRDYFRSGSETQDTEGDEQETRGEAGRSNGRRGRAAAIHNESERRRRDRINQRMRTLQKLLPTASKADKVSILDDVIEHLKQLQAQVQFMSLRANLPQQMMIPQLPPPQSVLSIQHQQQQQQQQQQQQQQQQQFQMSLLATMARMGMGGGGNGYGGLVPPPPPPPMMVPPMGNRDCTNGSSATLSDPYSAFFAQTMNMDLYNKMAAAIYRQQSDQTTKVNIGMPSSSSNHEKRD
Test: co-IP

binding result: binds
B1: ANGUSTIFOLIA3 / GRF-INTERACTING FACTOR 1 with GS^yellow tag (35S::AN3-GS^yellow) (natural protein, Arabidopsis thaliana, UniProt Q8L8A5 1-210, looked up)
chain: MQQHLMQMQPMMAGYYPSNVTSDHIQQYLDENKSLILKIVESQNSGKLSECAENQARLQRNLMYLAAIADSQPQPPSVHSQYGSAGGGMIQGEGGSHYLQQQQATQQQQMTQQSLMAARSSMLYAQQQQQQQPYATLQHQQLHHSQLGMSSSSGGGGSSGLHILQGEAGGFHDFGRGKPEMGSGGGGEGRGGSSGDGGETLYLKSSDDGN
